Positions count from the first letter of the chain named. No end group written: not given here.
Experiments:
[1] = biological target: AP-2 α-appendage appendage (UniProt P17426); settings: cited from earlier work
[2] = biological target: T1, FCHO1 μHD S732D (Homo sapiens); experiment: ITC
T1 chain: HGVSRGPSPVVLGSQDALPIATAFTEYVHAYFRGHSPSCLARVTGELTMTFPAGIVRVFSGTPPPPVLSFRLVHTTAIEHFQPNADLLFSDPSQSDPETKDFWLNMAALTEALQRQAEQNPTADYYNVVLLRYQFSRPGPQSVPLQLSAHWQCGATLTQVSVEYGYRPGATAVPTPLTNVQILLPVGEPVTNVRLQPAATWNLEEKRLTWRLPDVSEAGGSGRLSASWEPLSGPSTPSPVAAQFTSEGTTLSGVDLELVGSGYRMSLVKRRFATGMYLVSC

[3] = biological target: T2, FCHO1 μHD R872M (Homo sapiens); experiment: ITC
T2 chain: T1 chain with D124S, R264M

[4] = biological target: T3, Danio rerio (Dr) Fcho1 μHD (Danio rerio (zebrafish)); experiment: ITC
T3 chain: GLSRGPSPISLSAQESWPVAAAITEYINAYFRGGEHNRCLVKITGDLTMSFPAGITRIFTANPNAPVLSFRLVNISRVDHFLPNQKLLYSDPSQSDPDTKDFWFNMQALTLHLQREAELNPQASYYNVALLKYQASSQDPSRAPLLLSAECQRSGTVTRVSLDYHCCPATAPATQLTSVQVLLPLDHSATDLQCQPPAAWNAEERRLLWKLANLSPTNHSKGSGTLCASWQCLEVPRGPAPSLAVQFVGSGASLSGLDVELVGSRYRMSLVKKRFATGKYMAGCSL

[5] = biological target: T4, FCHO1 μHD R872A+S874G (Homo sapiens); experiment: ITC
T4 chain: T1 chain with D124S, R264A, S266G

[6] = biological target: T5, FCHO1 μHD (purified, not on beads) (human, UniProt O14526 609-889); experiment: pull-down; purified FCHO1 μHD with ~50 μg of GST or GST fusion protein in the presence of carrier BSA; stained or immunoblotted with an anti-FCHO1 monoclonal antibody; Figure 1D; settings: both partners purified
T5 construct: human FCHO1 μ-homology domain (μHD); also called purified FCHO1 μHD; Hs FCHO1 μHD; source: purified
T5 sequence (looked up): T1 chain with D124S

[7] = biological target: T5, FCHO1 μHD (purified, not on beads); experiment: ITC; repeated injection of EPS15 peptides into a temperature-controlled solution of μHD, Nano ITC instrument (TA Instruments); minimum of four runs; settings: both partners purified
[8] = biological target: T6, FCHO1 μHD K877E + R879A (for ITC) (human, UniProt O14526 609-889, K877E | R879A); experiment: as above; settings: both partners purified
T6 sequence (looked up): T1 chain with D124S, K269E, R271A

[9] = biological target: T7, FCHO1 μHD A629E (for ITC) (human, UniProt O14526 609-889, A629E); experiment: as above; settings: both partners purified
T7 sequence (looked up): T1 chain with A21E, D124S

[10] = biological target: T8, FCHO1 μHD P627D + A629E (for ITC) (human, UniProt O14526 609-889, P627D | A629E); experiment: as above; settings: both partners purified
T8 sequence (looked up): T1 chain with P19D, A21E, D124S

[11] = biological target: T9, GST-FCHO1 μHD K877E + R879A (human, UniProt O14526 609-889, K877E | R879A); experiment: pull-down; HeLa cell lysate with 250 μg (Figure 3F: the indicated amount) of GST or GST-μHD fusion proteins immobilised on glutathione-Sepharose; supernatant and pellet stained or immunoblotted; Figures 1G, 3E, 3F; settings: one partner purified
T9 construct: also called K877E + R879A mutant; source: GST-fusion protein immobilised on glutathione-Sepharose; not shown: GST, N-terminal, kept
T9 sequence (looked up): T1 chain with D124S, K269E, R271A

AP-2 α-appendage appendage, sequence (P17426 740-977): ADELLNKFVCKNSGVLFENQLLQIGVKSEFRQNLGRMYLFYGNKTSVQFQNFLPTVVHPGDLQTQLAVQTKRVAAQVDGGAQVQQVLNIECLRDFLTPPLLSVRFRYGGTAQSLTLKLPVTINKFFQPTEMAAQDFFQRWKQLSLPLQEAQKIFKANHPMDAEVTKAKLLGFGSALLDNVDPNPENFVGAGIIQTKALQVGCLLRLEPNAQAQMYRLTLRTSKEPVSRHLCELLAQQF

Question: Which Kd [1] does the source give for Eps15 DPF motif (from UniProt P42566) here?
Answer: 200 µM

Question: For NLDFFQSDPFVGSDPFKDDPFGK [EPS15 616–638 peptide, listing 1 of 2 here], which Kd [2] is on record?
Answer: 9.1 µM

Question: And the Kd [3]?
Answer: 19.6 µM

Question: What about the Kd [4] of the same molecule?
Answer: 8.1 µM

Question: For NLDFFQSDPFVGSDPFKDDPFGK [EPS15 616–638 peptide, listing 2 of 2 here], which Kd [5] is on record?
Answer: 77.4 µM

B1: GST-EPS15 (615–636) (peptide)
chain: {GST}-TNLDFFQSDPFVGSDPFKDDPF
notes: source: GST-fusion protein immobilised on glutathione-Sepharose; not shown: GST, N-terminal, kept
Question: Does B1 bind [6]?
Answer: binds

Question: What does the source list for NLDFFQSDPFVGSDPFKDDPFGK (peptide, UniProt P42566 616-638, looked up)?
Answer: Kd [7]: 2.7 µM; Kd [8]: > 300 µM; Kd [9]: > 300 µM; Kd [10]: > 300 µM

B2: EPS15 (epidermal growth factor pathway substrate 15) (natural protein, human (endogenous in HeLa), UniProt P42566 1-896, looked up)
chain: MAAAAQLSLTQLSSGNPVYEKYYRQVDTGNTGRVLASDAAAFLKKSGLPDLILGKIWDLADTDGKGILNKQEFFVALRLVACAQNGLEVSLSSLNLAVPPPRFHDTSSPLLISGTSAAELPWAVKPEDKAKYDAIFDSLSPVNGFLSGDKVKPVLLNSKLPVDILGRVWELSDIDHDGMLDRDEFAVAMFLVYCALEKEPVPMSLPPALVPPSKRKTWVVSPAEKAKYDEIFLKTDKDMDGFVSGLEVREIFLKTGLPSTLLAHIWSLCDTKDCGKLSKDQFALAFHLISQKLIKGIDPPHVLTPEMIPPSDRASLQKNIIGSSPVADFSAIKELDTLNNEIVDLQREKNNVEQDLKEKEDTIKQRTSEVQDLQDEVQRENTNLQKLQAQKQQVQELLDELDEQKAQLEEQLKEVRKKCAEEAQLISSLKAELTSQESQISTYEEELAKAREELSRLQQETAELEESVESGKAQLEPLQQHLQDSQQEISSMQMKLMEMKDLENHNSQLNWCSSPHSILVNGATDYCSLSTSSSETANLNEHVEGQSNLESEPIHQESPARSSPELLPSGVTDENEVTTAVTEKVCSELDNNRHSKEEDPFNVDSSSLTGPVADTNLDFFQSDPFVGSDPFKDDPFGKIDPFGGDPFKGSDPFASDCFFRQSTDPFATSSTDPFSAANNSSITSVETLKHNDPFAPGGTVVAASDSATDPFASVFGNESFGGGFADFSTLSKVNNEDPFRSATSSSVSNVVITKNVFEETSVKSEDEPPALPPKIGTPTRPCPLPPGKRSINKLDSPDPFKLNDPFQPFPGNDSPKEKDPEIFCDPFTSATTTTNKEADPSNFANFSAYPSEEDMIEWAKRESEREEEQRLARLNQQEQEDLELAIALSKSEISEA
notes: human EPS15, endogenous protein; also called native EPS15 dimer/tetramer
Question: With B2 as the molecule, how does the “fold reduction of recovery against the wild-type μHD” value [11] read?
Answer: ≥ 25 fold
